Drawing on patent publication US20220088180A1, this text covers IC50 for eight molecules.

In one assay the target is HLA-B*07:02 (human). Nature of the assay: radioligand competition, purified MHC.
Settings: not given
In turn, ELPDEFVVVTV (modifications not checked) [… (SEQ ID NO: 8)] came in with an IC50 greater than 70 µM.
Still for that read-out and setting: with EEFEPSTQYEY (modifications not checked) [… (SEQ ID NO: 20)] the figure was greater than 70 µM; with FASEAARVV (modifications not checked) [… (SEQ ID NO: 17)], 8.55 µM.
The same measure, in the same setting: with KAFQLTPIAV (modifications not checked) [… (SEQ ID NO: 13)] the figure was 8.6 µM.
For the molecule ELPDEFVVV (modifications not checked) [… (SEQ ID NO: 12)], the IC50 was greater than 70 µM.
KRVDWTIEY (modifications not checked) [… (SEQ ID NO: 29)] registered an IC50 greater than 70 µM.
The molecule FAVDAAKAY (modifications not checked) [… (SEQ ID NO: 28)] registered a half-maximal inhibitory concentration (IC50) greater than 70 µM.
Same read-out and setting: the result for APRITFGGP (modifications not checked) [… (SEQ ID NO: 42)] reads 0.059 µM.

A further assay deals with HLA-B*44:02 (human). Nature of the assay: radioligand competition, purified MHC.
Settings: not given
In turn, ELPDEFVVVTV (modifications not checked) [… (SEQ ID NO: 8)] yielded an IC50 greater than 70 µM.
For EEFEPSTQYEY (modifications not checked) [… (SEQ ID NO: 20)], the IC50 is 0.05 µM.
Same read-out and setting: with FASEAARVV (modifications not checked) [… (SEQ ID NO: 17)] the figure was greater than 70 µM.
KAFQLTPIAV (modifications not checked) [… (SEQ ID NO: 13)]: the IC50 was greater than 70 µM.
ELPDEFVVV (modifications not checked) [… (SEQ ID NO: 12)] registered an IC50 greater than 70 µM.
For FAVDAAKAY (modifications not checked) [… (SEQ ID NO: 28)], the IC50 is greater than 70 µM.
The molecule APRITFGGP (modifications not checked) [… (SEQ ID NO: 42)] had an IC50 greater than 70 µM.

The same assay, now with this note: remark: other sources report otherwise.
Molecule KRVDWTIEY (modifications not checked) [… (SEQ ID NO: 29)] came in with an IC50 greater than 70 µM.

A further assay concerns the target HLA-A*26:01 (human). Briefly: radioligand competition, purified MHC.
Settings: not given
With ELPDEFVVVTV (modifications not checked) [… (SEQ ID NO: 8)], the IC50 turned out to be 0.072 µM.
EEFEPSTQYEY (modifications not checked) [… (SEQ ID NO: 20)] had an IC50 of 18.8 µM.
Consider FASEAARVV (modifications not checked) [… (SEQ ID NO: 17)], for which the IC50 was 0.734 µM. This IC50 is about 26-fold lower than that of the molecule before.
KAFQLTPIAV (modifications not checked) [… (SEQ ID NO: 13)] had an IC50 greater than 70 µM.
ELPDEFVVV (modifications not checked) [… (SEQ ID NO: 12)] yielded a 50% inhibitory concentration (IC50) of 6.86 µM.
In turn, FAVDAAKAY (modifications not checked) [… (SEQ ID NO: 28)] yielded an IC50 of 0.0067 µM.
APRITFGGP (modifications not checked) [… (SEQ ID NO: 42)] gave an IC50 greater than 70 µM.

Staying with this assay, now noted: remark: other sources report otherwise.
For KRVDWTIEY (modifications not checked) [… (SEQ ID NO: 29)], the IC50 is greater than 70 µM.

Another assay addresses HLA-A*01:01 (human). Briefly: radioligand competition, purified MHC.
Settings: not given
The molecule ELPDEFVVVTV (modifications not checked) [… (SEQ ID NO: 8)] gave an IC50 greater than 70 µM.
On to EEFEPSTQYEY (modifications not checked) [… (SEQ ID NO: 20)], for which the IC50 was greater than 70 µM.
On the same count and under the same terms, with FASEAARVV (modifications not checked) [… (SEQ ID NO: 17)] the figure was greater than 70 µM; with KAFQLTPIAV (modifications not checked) [… (SEQ ID NO: 13)], greater than 70 µM.
ELPDEFVVV (modifications not checked) [… (SEQ ID NO: 12)] yielded an IC50 greater than 70 µM.
Regarding FAVDAAKAY (modifications not checked) [… (SEQ ID NO: 28)], the IC50 is greater than 70 µM.
In the case of APRITFGGP (modifications not checked) [… (SEQ ID NO: 42)], the IC50 is greater than 70 µM.

The assay is the same for the next values; noted with them: remark: other sources report otherwise.
The molecule KRVDWTIEY (modifications not checked) [… (SEQ ID NO: 29)] had an IC50 greater than 70 µM.

The target of the next assay is HLA-B*15:01 (human). Briefly: radioligand competition, purified MHC.
Settings: not given
Turning to ELPDEFVVVTV (modifications not checked) [… (SEQ ID NO: 8)], the IC50 worked out at 35.1 µM.
Consider EEFEPSTQYEY (modifications not checked) [… (SEQ ID NO: 20)], for which the IC50 turned out to be 0.078 µM.
On the same count and under the same terms, with FASEAARVV (modifications not checked) [… (SEQ ID NO: 17)] the figure was 2.55 µM; with KAFQLTPIAV (modifications not checked) [… (SEQ ID NO: 13)], 1.2 µM.
The molecule ELPDEFVVV (modifications not checked) [… (SEQ ID NO: 12)] returned an IC50 greater than 70 µM.
The molecule FAVDAAKAY (modifications not checked) [… (SEQ ID NO: 28)] returned an IC50 of 0.0027 µM.
Still for that read-out and setting: the result for APRITFGGP (modifications not checked) [… (SEQ ID NO: 42)] reads greater than 70 µM.

Still in this assay, the particulars now being: remark: other sources report otherwise.
Molecule KRVDWTIEY (modifications not checked) [… (SEQ ID NO: 29)] had an IC50 of 0.356 µM.

The target of another assay is HLA-A*02:01 (human). Nature of the assay: radioligand competition, purified MHC.
Settings: not given
The molecule ELPDEFVVVTV (modifications not checked) [… (SEQ ID NO: 8)] displayed a concentration for half-maximal inhibition (IC50) of 0.0016 µM.
Take EEFEPSTQYEY (modifications not checked) [… (SEQ ID NO: 20)]: the IC50 is greater than 70 µM.
In turn, FASEAARVV (modifications not checked) [… (SEQ ID NO: 17)] registered an IC50 of 0.495 µM. This counts as sub-micromolar.
Take KAFQLTPIAV (modifications not checked) [… (SEQ ID NO: 13)]: the concentration for half-maximal inhibition (IC50) came to 0.0078 µM.
For the molecule ELPDEFVVV (modifications not checked) [… (SEQ ID NO: 12)], the IC50 is 0.46 µM.
For FAVDAAKAY (modifications not checked) [… (SEQ ID NO: 28)], the IC50 is greater than 70 µM.
In turn, APRITFGGP (modifications not checked) [… (SEQ ID NO: 42)] displayed an IC50 of 0.893 µM.

The assay is the same for the next values; noted with them: remark: other sources report otherwise.
The molecule KRVDWTIEY (modifications not checked) [… (SEQ ID NO: 29)] displayed an IC50 greater than 70 µM.

For the next assay, the target named is HLA-B*18:01 (human). Briefly: radioligand competition, purified MHC.
Settings: not given
For the molecule ELPDEFVVVTV (modifications not checked) [… (SEQ ID NO: 8)], the IC50 is 1.13 µM.
The molecule EEFEPSTQYEY (modifications not checked) [… (SEQ ID NO: 20)] displayed an IC50 of 0.0011 µM.
With FASEAARVV (modifications not checked) [… (SEQ ID NO: 17)], the IC50 was determined as 49.5 µM.
For KAFQLTPIAV (modifications not checked) [… (SEQ ID NO: 13)], the IC50 came to 3.87 µM.
Turning to ELPDEFVVV (modifications not checked) [… (SEQ ID NO: 12)], the IC50 was greater than 70 µM.
Regarding FAVDAAKAY (modifications not checked) [… (SEQ ID NO: 28)], the IC50 is 35.9 µM.
APRITFGGP (modifications not checked) [… (SEQ ID NO: 42)] showed an IC50 greater than 70 µM.

The assay is the same for the next values; noted with them: remark: other sources report otherwise.
With KRVDWTIEY (modifications not checked) [… (SEQ ID NO: 29)], the IC50 was greater than 70 µM.

In a further assay the target is HLA-B*51:01 (human). Briefly: radioligand competition, purified MHC.
Settings: not given
With ELPDEFVVVTV (modifications not checked) [… (SEQ ID NO: 8)], the IC50 is greater than 70 µM.
On to EEFEPSTQYEY (modifications not checked) [… (SEQ ID NO: 20)], for which the IC50 is greater than 70 µM.
Molecule FASEAARVV (modifications not checked) [… (SEQ ID NO: 17)] had an IC50 of 0.207 µM. That is a sub-micromolar value.
The molecule KAFQLTPIAV (modifications not checked) [… (SEQ ID NO: 13)] returned an IC50 of 38.7 µM.
Molecule ELPDEFVVV (modifications not checked) [… (SEQ ID NO: 12)] displayed a half-maximal inhibitory concentration (IC50) greater than 70 µM.
On the same count and under the same terms, with FAVDAAKAY (modifications not checked) [… (SEQ ID NO: 28)] the figure was greater than 70 µM.
In turn, APRITFGGP (modifications not checked) [… (SEQ ID NO: 42)] came in with an IC50 greater than 70 µM.

The same assay, now with this note: remark: other sources report otherwise.
As for KRVDWTIEY (modifications not checked) [… (SEQ ID NO: 29)], the IC50 came to 22.7 µM.

A further assay concerns the target HLA-B*44:03 (human). Nature of the assay: radioligand competition, purified MHC.
Settings: not given
Consider ELPDEFVVVTV (modifications not checked) [… (SEQ ID NO: 8)], for which the IC50 is greater than 70 µM.
The molecule EEFEPSTQYEY (modifications not checked) [… (SEQ ID NO: 20)] registered an IC50 of 0.00041 µM.
Regarding FASEAARVV (modifications not checked) [… (SEQ ID NO: 17)], the IC50 was greater than 70 µM.
As to KAFQLTPIAV (modifications not checked) [… (SEQ ID NO: 13)], the IC50 is 16.4 µM. In other words, the double-digit micromolar range.
Same read-out and setting: with ELPDEFVVV (modifications not checked) [… (SEQ ID NO: 12)] the figure was greater than 70 µM.
Still for that read-out and setting: the result for FAVDAAKAY (modifications not checked) [… (SEQ ID NO: 28)] reads greater than 70 µM; that for APRITFGGP (modifications not checked) [… (SEQ ID NO: 42)], greater than 70 µM.

The same assay, now with this note: remark: other sources report otherwise.
With KRVDWTIEY (modifications not checked) [… (SEQ ID NO: 29)], the IC50 is greater than 70 µM.
